B1: TGF-βRII-Fc (muTGFbRII-mFc) (Fc fusion, UniProt Q62312 24-166, looked up)
chain: IPPHVPKSVNSDVMASDNGGAVKLPQLCKFCDVRLSTCDNQKSCMSNCSITAICEKPHEVCVAVWRKNDKNITLETVCHDPKLTYHGFTLEDAASPKCVMKEKKRAGETFFMCACNMEECNDYIIFSEEYTTSSPDLLLVIIQ
B2: Transforming growth factor-β3 (TGF-β3) (ligand, UniProt P10600 301-412, looked up)
chain: ALDTNYCFRNLEENCCVRPLYIDFRQDLGWKWVHEPKGYYANFCSGPCPYLRSADTTHSTVLGLYNTLNPEASASPCCVPQDLEPLTILYYVGRTPKVEQLSNMVVKSCKCS
notes: TGF-β3 ligand used as SPR analyte

Key:
[1] = molecular target: Transforming growth factor-β1 (TGF-β1) (UniProt P01137 279-390); assay: cell-based or functional assay
Sequence of Transforming growth factor-β1 (TGF-β1) (P01137 279-390): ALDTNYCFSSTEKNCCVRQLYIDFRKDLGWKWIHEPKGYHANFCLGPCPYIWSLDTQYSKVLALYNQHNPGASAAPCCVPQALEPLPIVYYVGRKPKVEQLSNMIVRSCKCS

[2] = molecular target: B2; assay: cell-based or functional assay
[3] = molecular target: B1; assay: SPR; Biacore T100; TGF-βRII-Fc captured (~50 RU) by an anti-mouse Fc antibody amine-coupled to a CM5 chip; ligand injected at 0.013-10 nM (0.013-1.1 nM used for the fit); HBS-EP with 350 mM NaCl and 0.5 mg/mL BSA; 1:1 model with mass transport, KD = kd/ka; details: both partners purified

Row | Binder | IC50 of TGF-βRII-Fc against TGF-β1 (640 pg/mL) signalling in A549 cells with the (CAGA)12 luciferase reporter [1] [nM] | IC50 of TGF-βRII-Fc against TGF-β3 (270 pg/mL) signalling in A549 cells with the (CAGA)12 luciferase reporter [2] [nM] | Kd [3] [nM]
1 | B1 | 0.0229 | 0.00446 | 
2 | B2 |  |  | 0.0112

From article PMC9714796, “Macrophage TGF-β signaling is critical for wound healing with heterotopic ossification after trauma” (JCI Insight, 2022)
